This note sets out measurements from patent US20260217835A1 (published 2026).

B1: IgG2 full-length heavy chain with Q347R/K360E/D399V/F405T/K409W (SEQ ID NO: 89) with light chain SEQ ID NO: 61 (antibody)
heavy: QVQLQESGPGLVRPSQTLSLTCTVSGYSITSDHAWSWVRQPPGRGLEWIGYISYSGITTYNPSLKSRVTMLRDTSKNQFSLRLSSVTAADTAVYYCARSLARTTAMDYWGQGSLVTVSSASTKGPSVFPLAPCSRSTSESTAALGCLVKDYFPEPVTVSWNSGALTSGVHTFPAVLQSSGLYSLSSVVTVPSSNFGTQTYTCNVDHKPSNTKVDKTVERKCCVECPPCPAPPVAGPSVFLFPPKPKDTLMISRTPEVTCVVVDVSHEDPEVQFNWYVDGVEVHNAKTKPREEQFNSTFRVVSVLTVVHQDWLNGKEYKCKVSNKGLPAPIEKTISKTKGQPREPRVYTLPPSREEMTENQVSLTCLVKGFYPSDIAVEWESNGQPENNYKTTPPMLVSDGSFTLYSWLTVDKSRWQQGNVFSCSVMHEALHNHYTQKSLSLSP
light: not shown
notes: also called Sample No. 210 full-length heavy chain
B2: IgG2 full-length heavy chain with T394W/F405A (SEQ ID NO: 87) with light chain SEQ ID NO: 61 (antibody)
heavy: B1 heavy with R345Q, E358K, T392W, V397D, T403A, W407K
light: not shown
notes: also called Sample No. 208 full-length heavy chain
B3: IgG2 full-length heavy chain with K392D/D399K/K409D (SEQ ID NO: 91) with light chain SEQ ID NO: 61 (antibody)
heavy: B1 heavy with R345Q, E358K, K390D, V397K, T403F, W407D
light: not shown
notes: also called Sample No. 212 full-length heavy chain
B4: IgG2 full-length heavy chain with T366W/L368A/Y407V (SEQ ID NO: 88) with light chain SEQ ID NO: 61 (antibody)
heavy: B1 heavy with R345Q, E358K, T364W, L366A, V397D, T403F, Y405V, W407K
light: not shown
B5: IgG2 full-length heavy chain with K392L/T394W/F405A/Y407V (SEQ ID NO: 90) with light chain SEQ ID NO: 61 (antibody)
heavy: B1 heavy with R345Q, E358K, K390L, T392W, V397D, T403A, Y405V, W407K
light: not shown
B6: IgG4 full-length heavy chain with T366W/L368A/Y407V (SEQ ID NO: 94) with light chain SEQ ID NO: 61 (antibody)
heavy: QVQLQESGPGLVRPSQTLSLTCTVSGYSITSDHAWSWVRQPPGRGLEWIGYISYSGITTYNPSLKSRVTMLRDTSKNQFSLRLSSVTAADTAVYYCARSLARTTAMDYWGQGSLVTVSSASTKGPSVFPLAPCSRSTSESTAALGCLVKDYFPEPVTVSWNSGALTSGVHTFPAVLQSSGLYSLSSVVTVPSSSLGTKTYTCNVDHKPSNTKVDKRVESKYGPPCPPCPAPEFLGGPSVFLFPPKPKDTLMISRTPEVTCVVVDVSQEDPEVQFNWYVDGVEVHNAKTKPREEQFNSTYRVVSVLTVLHQDWLNGKEYKCKVSNKGLPSSIEKTISKAKGQPREPQVYTLPPSQEEMTKNQVSLWCAVKGFYPSDIAVEWESNGQPENNYKTTPPVLDSDGSFFLVSRLTVDKSRWQEGNVFSCSVMHEALHNHYTQKSLSLSL
light: not shown
B7: IgG4 full-length heavy chain with T394W/F405A (SEQ ID NO: 93) with light chain SEQ ID NO: 61 (antibody)
heavy: B6 heavy with W365T, A367L, T393W, F404A, V406Y
light: not shown
B8: IgG1 full-length heavy chain with Q347E/S354Y/T366Y/Y407T (SEQ ID NO: 39) with light chain SEQ ID NO: 61 (antibody)
heavy: QVQLQESGPGLVRPSQTLSLTCTVSGYSITSDHAWSWVRQPPGRGLEWIGYISYSGITTYNPSLKSRVTMLRDTSKNQFSLRLSSVTAADTAVYYCARSLARTTAMDYWGQGSLVTVSSASTKGPSVFPLAPSSKSTSGGTAALGCLVKDYFPEPVTVSWNSGALTSGVHTFPAVLQSSGLYSLSSVVTVPSSSLGTQTYICNVNHKPSNTKVDKRVEPKSCDKTHTCPPCPAPELLGGPSVFLFPPKPKDTLMISRTPEVTCVVVDVSHEDPEVKFNWYVDGVEVHNAKTKPREEQYNSTYRVVSVLTVLHQDWLNGKEYKCKVSNKALPAPIEKTISKAKGQPREPEVYTLPPYREEMTKNQVSLYCLVKGFYPSDIAVEWESNGQPENNYKTTPPVLDSDGSFFLTSKLTVDKSRWQQGNVFSCSVMHEALHNHYTQKSLSLSP
light: not shown
B9: IgG1 full-length heavy chain with T350V/L351Y/T366L/K392L/T394W/F405A/Y407V (SEQ ID NO: 60) with light chain SEQ ID NO: 61 (antibody)
heavy: B8 heavy with E349Q, T352V, L353Y, Y356S, Y368L, K394L, T396W, F407A, T409V
light: not shown
B10: IgG1 full-length heavy chain with Q347R/K360E/D399V/F405T/K409W (SEQ ID NO: 31) with light chain SEQ ID NO: 61 (antibody)
heavy: B8 heavy with E349R, Y356S, K362E, Y368T, D401V, F407T, T409Y, K411W
light: not shown
B11: IgG1 full-length heavy chain with T366W/L368A/Y407V (SEQ ID NO: 26) with light chain SEQ ID NO: 61 (antibody)
heavy: B8 heavy with E349Q, Y356S, Y368W, L370A, T409V
light: not shown
B12: IgG2 full-length heavy chain E345R/Q347R/K360D/T366V/D399M/Y407A/K409V (SEQ ID NO: 100) with light chain SEQ ID NO: 61 (antibody)
heavy: B1 heavy with E343R, E358D, T364V, V397M, T403F, Y405A, W407V
light: not shown
notes: also called Sample No. 234
B13: IgG2 full-length heavy chain Q347E/S354Y/T366Y/Y407T (SEQ ID NO: 99) with light chain SEQ ID NO: 61 (antibody)
heavy: B1 heavy with R345E, S352Y, E358K, T364Y, V397D, T403F, Y405T, W407K
light: not shown
notes: also called Sample No. 233
B14: IgG4 full-length heavy chain K392D/D399K/R409D (SEQ ID NO: 97) with light chain SEQ ID NO: 61 (antibody)
heavy: B6 heavy with W365T, A367L, K391D, D398K, V406Y, R408D
light: not shown
B15: IgG4 full-length heavy chain Q347R/K360E/D399V/F405T/R409W (SEQ ID NO: 95) with light chain SEQ ID NO: 61 (antibody)
heavy: B6 heavy with Q346R, K359E, W365T, A367L, D398V, F404T, V406Y, R408W
light: not shown
B16: IgG4 full-length heavy chain K392L/T394W/F405A/Y407V (SEQ ID NO: 96) with light chain SEQ ID NO: 61 (antibody)
heavy: B6 heavy with W365T, A367L, K391L, T393W, F404A
light: not shown
B17: IgG1 full-length heavy chain E356K/D399K/K409E/K439E (SEQ ID NO: 36) with light chain SEQ ID NO: 61 (antibody)
heavy: B8 heavy with E349Q, Y356S, E358K, Y368T, D401K, T409Y, K411E, K441E
light: not shown
B18: IgG1 full-length heavy chain Q347R/K360E/D399V/F405T/K409W (SEQ ID NO: 31) with light chain SEQ ID NO: 61 (antibody)
heavy: B8 heavy with E349R, Y356S, K362E, Y368T, D401V, F407T, T409Y, K411W
light: not shown
B19: IgG1 full-length heavy chain K392L/T394W/F405A/Y407V (SEQ ID NO: 41) with light chain SEQ ID NO: 61 (antibody)
heavy: B8 heavy with E349Q, Y356S, Y368T, K394L, T396W, F407A, T409V
light: not shown
notes: also called Sample No. 225
B20: IgG1 full-length heavy chain E356K/K392D/D399K/K439E (SEQ ID NO: 48) with light chain SEQ ID NO: 61 (antibody)
heavy: B8 heavy with E349Q, Y356S, E358K, Y368T, K394D, D401K, T409Y, K441E
light: not shown
B21: IgG1 full-length heavy chain Q347E/S354Y/T366Y/Y407T (SEQ ID NO: 39) with light chain SEQ ID NO: 61 (antibody)
heavy: B8 heavy
light: not shown
B22: IgG1 full-length heavy chain E345R/Q347R/K360D/T366V/D399M/Y407A/K409V (SEQ ID NO: 55) with light chain SEQ ID NO: 61 (antibody)
heavy: B8 heavy with E347R, E349R, Y356S, K362D, Y368V, D401M, T409A, K411V
light: not shown
B23: IgG1 full-length heavy chain E345R/K360E/D399M/Y407A/K409V (SEQ ID NO: 58) with light chain SEQ ID NO: 61 (antibody)
heavy: B8 heavy with E347R, E349Q, Y356S, K362E, Y368T, D401M, T409A, K411V
light: not shown
notes: also called Sample No. 230
B24: IgG1 full-length heavy chain E356K/K392D/D399K/K409D (SEQ ID NO: 56) with light chain SEQ ID NO: 61 (antibody)
heavy: B8 heavy with E349Q, Y356S, E358K, Y368T, K394D, D401K, T409Y, K411D
light: not shown
notes: also called Sample No. 229
B25: IgG1 full-length heavy chain K392D/D399K/K409D (SEQ ID NO: 50) with light chain SEQ ID NO: 61 (antibody)
heavy: B8 heavy with E349Q, Y356S, Y368T, K394D, D401K, T409Y, K411D
light: not shown

Substitutions are numbered along the chain they refer to. Names may count otherwise.

The first data set concerns the molecule itself. As to the kind of experiment: SEC peak area ratio after coexpression of full-length heavy chain, light chain and Fc fragment.
B1: the “Homo full-length heavy chain (%)” value came out at 80.4%. In the case of B2, the “Homo full-length heavy chain (%)” value worked out at 80.8%. Still for that read-out and setting: the figure for B3 is 79.6%; for B4 it is 80%. In the case of B5, the “Homo full-length heavy chain (%)” value was found to be 78.5%. On to B6, for which the “Homo full-length heavy chain (%)” value worked out at 83%.

B7: the “Homo full-length heavy chain (%)” value was determined as 82%. For B8, the “Homo full-length heavy chain (%)” value is 70.4%.

For the molecule B9, the “Homo full-length heavy chain (%)” value came to 71.9%. With B10, the “Homo full-length heavy chain (%)” value turned out to be 72.1%.

In the case of B11, the “Homo full-length heavy chain (%)” value is 73.8%.

The next data set addresses T1, IgG2 Fc fragment without modification (SEQ ID NO: 103) (Homo sapiens (Human), UniProt P01859 99-324 = IgG part).
T1 construct: Fc fragment co-expressed with a full-length heavy chain and the light chain; the associating unit is one Fc chain; also called WT-IgG2 Fc fragment
As to the kind of experiment: co-expression of full-length heavy chain, light chain and Fc fragment in Expi293F, affinity purification, SEC peak area ratio.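 Further: purified antibodies analysed by size exclusion chromatography with UV detection at 215 nm, each species given as share of total chromatogram peak area.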
For the molecule B12, the “Heteromultimer (%)” value amounted to 0%.

For the molecule B13, the “Heteromultimer (%)” value was found to be 0%. On the same count and under the same terms, to B14 belongs 0%. On to B15, for which the “Heteromultimer (%)” value came out at 0%.

As to B16, the “Heteromultimer (%)” value stood at 0%.

B17: the “Heteromultimer (%)” value was 0%. On the same count and under the same terms, to B18 belongs 0%; to B19, 0%; to B20, 0%.

Take B21: the “Heteromultimer (%)” value stood at 0%. Same read-out and setting: the figure for B22 is 0%. For B23, the “Heteromultimer (%)” value worked out at 0%.

B24: the “Heteromultimer (%)” value turned out to be 0%. B25: the “Heteromultimer (%)” value worked out at 0%.

The next data set deals with the molecule itself. The data set is described as above.
Regarding B12, the “Homo full-length heavy chain (%)” value was 76.1%. On to B13, for which the “Homo full-length heavy chain (%)” value is 76.3%.

As for B14, the “Homo full-length heavy chain (%)” value turned out to be 82.5%. For B15, the “Homo full-length heavy chain (%)” value was 83.5%.

As for B16, the “Homo full-length heavy chain (%)” value stood at 81.5%. For the molecule B17, the “Homo full-length heavy chain (%)” value is 84.3%. Turning to B18, the “Homo full-length heavy chain (%)” value was found to be 82.7%. In the case of B19, the “Homo full-length heavy chain (%)” value was determined as 83.8%. As to B20, the “Homo full-length heavy chain (%)” value was found to be 85.1%. In the case of B21, the “Homo full-length heavy chain (%)” value was 82.9%.

Regarding B22, the “Homo full-length heavy chain (%)” value was 83.5%. Regarding B23, the “Homo full-length heavy chain (%)” value is 84.3%. In the case of B24, the “Homo full-length heavy chain (%)” value stood at 81.4%. For B25, the “Homo full-length heavy chain (%)” value amounted to 81.4%.
